Earlier results, collected in PMC8146069.

What was measured:
[1] = target: r-hirudin (recombinant hirudin, type 1 or type 2) (UniProt P01050); assay: pH profile of hirudin binding to thrombin (the measured quantity and the assay are not stated in this article)
His57 = His57 (UniProt position 406, VLTAAHCLLYP); assay: kinetics
Nterm16 = assay: kinetics
[2] = 25 °C (as for the free enzyme; inferred from the preceding sentence), µ = 0.1 (inferred from the preceding sentence), thrombin with small peptide substrate bound
[3] = 25.0 ± 0.1 °C, thrombin reacting with NPMP
[4] = 25.0 ± 0.1 °C, thrombin reacting with PPACK (2.2 × 10^−9 M, [I] << Ki)
[5] = 25.0 ± 0.1 °C, thrombin reacting with paraoxon

r-hirudin (recombinant hirudin, type 1 or type 2), sequence (P01050 whole entry): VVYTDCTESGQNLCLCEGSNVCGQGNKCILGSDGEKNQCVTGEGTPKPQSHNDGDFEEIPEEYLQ

| Substance | pKa, His57 of thrombin [1] [pH units] | pKa (His57; [2]) | pKa (His57; 25 °C, µ = 0.1, free thrombin) | pKa (His57; [3]) | pKa (His57; [4]) | pKa (His57; [5]) | pKa (His57; thrombin binding r-hirudin) | pKa (Nterm16; [2]) | pKa (Nterm16; 25 °C, µ = 0.1, free thrombin) | pKa (Nterm16; [3]) | pKa (Nterm16; [4]) | pKa (Nterm16; [5]) |
| --- | --- | --- | --- | --- | --- | --- | --- | --- | --- | --- | --- | --- |
| alpha-thrombin | 7.1 |  |  |  |  |  |  |  |  |  |  |  |
| alpha-thrombin (Homo sapiens) |  | 6.16 ± 0.25 | 6.7 ± 0.3 | 8.0 ± 0.1 | 7.3 ± 0.2 | 7.8 ± 0.2 | 7.1 | 8.95 ± 0.41 | 8.4 ± 0.4 | 8.6 ± 0.2 | 8.8 ± 0.3 | 9.3 ± 0.3 |
